Laboratory results reported in PMC9482650, “Quantitative fragmentomics allow affinity mapping of interactomes” (Nature Communications, 2022).

Key:
Assay in all cases: holdup assay
Parameters in all cases: key: below the threshold = too weak to quantify, mostly under pKd 3.1 to 4
Conditions in all cases: plain residues with an end cap or a label only (N-terminal biotin on a linker: ttds)
[1] = target: T1, APBA2_1, Q99767
T1 sequence (Q99767 563-664, limits assumed, looked up): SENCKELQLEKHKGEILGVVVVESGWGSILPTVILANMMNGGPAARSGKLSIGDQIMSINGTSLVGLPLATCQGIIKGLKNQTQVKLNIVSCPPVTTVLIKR

[2] = target: T2, DFNB31_3, Q9P202
T2 sequence (Q9P202 811-907, limits assumed, looked up): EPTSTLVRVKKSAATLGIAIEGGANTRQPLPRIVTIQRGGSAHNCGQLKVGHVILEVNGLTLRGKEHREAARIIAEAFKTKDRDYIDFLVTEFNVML

[3] = target: DLG1_3, Q12959
DLG1_3, Q12959, sequence (Q12959 457-571): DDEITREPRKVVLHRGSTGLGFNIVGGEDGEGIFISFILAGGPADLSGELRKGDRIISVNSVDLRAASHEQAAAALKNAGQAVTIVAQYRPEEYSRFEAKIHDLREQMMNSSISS

[4] = target: DLG2_2, Q15700
DLG2_2, Q15700, sequence (Q15700 189-283): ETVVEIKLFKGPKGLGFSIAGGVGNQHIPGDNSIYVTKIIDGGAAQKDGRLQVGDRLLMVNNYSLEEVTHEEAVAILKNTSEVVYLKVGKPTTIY

[5] = target: T3, DLG3_3, Q92796
T3 sequence (Q92796 374-475, limits assumed, looked up): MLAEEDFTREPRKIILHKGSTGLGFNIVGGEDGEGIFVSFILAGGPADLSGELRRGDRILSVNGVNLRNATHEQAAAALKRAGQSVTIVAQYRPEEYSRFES

[6] = target: DLG4_1, P78352
DLG4_1, P78352, sequence (P78352 62-152): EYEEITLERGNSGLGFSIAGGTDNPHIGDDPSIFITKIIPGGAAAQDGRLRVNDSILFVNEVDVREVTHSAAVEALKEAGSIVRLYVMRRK

[7] = target: DLG4_2, P78352
DLG4_2, P78352, sequence (P78352 155-259): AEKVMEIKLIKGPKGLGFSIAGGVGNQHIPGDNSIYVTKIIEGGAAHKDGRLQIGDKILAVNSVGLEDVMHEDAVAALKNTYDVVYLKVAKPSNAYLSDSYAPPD

[8] = target: DLG4_3, P78352
DLG4_3, P78352, sequence (P78352 306-403): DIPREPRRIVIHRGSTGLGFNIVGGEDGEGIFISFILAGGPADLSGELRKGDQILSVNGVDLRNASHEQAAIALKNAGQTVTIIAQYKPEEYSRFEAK

[9] = target: FRMPD2_1, Q68DX3
FRMPD2_1, Q68DX3, sequence (Q68DX3 770-861): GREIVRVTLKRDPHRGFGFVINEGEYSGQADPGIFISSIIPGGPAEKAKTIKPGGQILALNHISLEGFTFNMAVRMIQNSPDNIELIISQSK

[10] = target: FRMPD4, Q14CM0
FRMPD4, Q14CM0, sequence (Q14CM0 67-160): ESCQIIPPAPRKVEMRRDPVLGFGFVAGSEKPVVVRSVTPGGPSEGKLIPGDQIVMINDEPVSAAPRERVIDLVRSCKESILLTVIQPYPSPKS

[11] = target: GOPC, Q9HD26
[12] = target: GORASP2, Q9H8Y8
[13] = target: T4, GRIP1_7, Q9Y3R0
T4 sequence (Q9Y3R0 999-1096, limits assumed, looked up): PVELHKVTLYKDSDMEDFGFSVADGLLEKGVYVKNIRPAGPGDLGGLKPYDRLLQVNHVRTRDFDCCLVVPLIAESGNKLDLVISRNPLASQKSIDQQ

[14] = target: GRIP2_3, Q9C0E4
GRIP2_3, Q9C0E4, sequence (Q9C0E4 238-339): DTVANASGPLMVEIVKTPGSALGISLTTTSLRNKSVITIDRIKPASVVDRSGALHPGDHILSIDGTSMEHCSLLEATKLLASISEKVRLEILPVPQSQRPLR

[15] = target: T5, HTRA4, P83105
T5 sequence (P83105 378-476, limits assumed, looked up): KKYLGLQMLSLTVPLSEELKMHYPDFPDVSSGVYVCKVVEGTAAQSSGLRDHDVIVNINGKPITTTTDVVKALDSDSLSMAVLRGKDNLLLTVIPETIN

[16] = target: Inadl_2, Q8NI35
Inadl_2, Q8NI35, sequence (Q8NI35 238-335): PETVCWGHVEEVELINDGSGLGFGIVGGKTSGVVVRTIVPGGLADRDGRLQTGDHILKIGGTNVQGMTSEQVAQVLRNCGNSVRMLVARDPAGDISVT

[17] = target: Inadl_8, Q8NI35
Inadl_8, Q8NI35, sequence (Q8NI35 1425-1530): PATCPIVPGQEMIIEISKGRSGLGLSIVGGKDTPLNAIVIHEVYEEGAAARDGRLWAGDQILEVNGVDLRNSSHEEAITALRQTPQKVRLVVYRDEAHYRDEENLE

[18] = target: LIMK2, P53671
LIMK2, P53671, sequence (P53671 143-248): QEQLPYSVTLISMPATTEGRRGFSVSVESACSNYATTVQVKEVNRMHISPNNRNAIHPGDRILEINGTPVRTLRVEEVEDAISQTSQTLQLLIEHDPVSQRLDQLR

[19] = target: LNX1_1, Q8TBB1
LNX1_1, Q8TBB1, sequence (Q8TBB1 261-371): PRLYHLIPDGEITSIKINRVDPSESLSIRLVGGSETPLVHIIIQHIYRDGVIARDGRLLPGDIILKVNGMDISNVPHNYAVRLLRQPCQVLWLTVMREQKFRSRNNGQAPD

[20] = target: LNX1_3, Q8TBB1
LNX1_3, Q8TBB1, sequence (Q8TBB1 500-596): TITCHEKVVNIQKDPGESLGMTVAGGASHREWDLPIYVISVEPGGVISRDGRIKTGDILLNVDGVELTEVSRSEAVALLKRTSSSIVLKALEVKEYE

[21] = target: MAGI2_3, Q86UL8
MAGI2_3, Q86UL8, sequence (Q86UL8 600-682): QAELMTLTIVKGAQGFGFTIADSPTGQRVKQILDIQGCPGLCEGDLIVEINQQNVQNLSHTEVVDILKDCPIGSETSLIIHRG

[22] = target: MAGI2_5, Q86UL8
MAGI2_5, Q86UL8, sequence (Q86UL8 915-1017): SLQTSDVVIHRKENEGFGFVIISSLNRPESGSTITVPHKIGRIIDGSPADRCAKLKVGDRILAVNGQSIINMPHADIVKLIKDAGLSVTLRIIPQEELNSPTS

[23] = target: MAST2, Q6P0Q8
MAST2, Q6P0Q8, sequence (Q6P0Q8 1099-1202): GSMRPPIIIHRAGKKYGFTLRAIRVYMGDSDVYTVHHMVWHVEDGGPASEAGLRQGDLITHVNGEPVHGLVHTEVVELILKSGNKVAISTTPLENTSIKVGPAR

[24] = target: T6, NHERF3_1, Q5T2W1
T6 sequence (Q5T2W1 4-100, limits assumed, looked up): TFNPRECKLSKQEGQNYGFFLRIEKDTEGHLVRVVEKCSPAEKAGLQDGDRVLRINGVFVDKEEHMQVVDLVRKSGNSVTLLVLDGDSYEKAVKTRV

[25] = target: NHERF4_1, Q86UT5-2
NHERF4_1, Q86UT5-2, sequence (Q86UT5 other isoform, or with tags, fused parts or gaps): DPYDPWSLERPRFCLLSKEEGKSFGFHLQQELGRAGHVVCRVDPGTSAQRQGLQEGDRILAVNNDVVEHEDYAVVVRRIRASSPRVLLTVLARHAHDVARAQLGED

[26] = target: NHERF4_4, Q86UT5
NHERF4_4, Q86UT5, sequence (Q86UT5 464-550): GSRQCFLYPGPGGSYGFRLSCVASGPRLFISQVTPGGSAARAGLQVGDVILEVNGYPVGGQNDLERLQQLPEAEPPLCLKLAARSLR

[27] = target: T7, PDZD2_2, O15018
T7 sequence (O15018 329-429, limits assumed, looked up): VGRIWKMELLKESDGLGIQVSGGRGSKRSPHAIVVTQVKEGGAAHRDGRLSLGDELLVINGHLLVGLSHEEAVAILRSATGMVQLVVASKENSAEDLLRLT

[28] = target: SCRIB_1, Q14160
SCRIB_1, Q14160, sequence (Q14160 718-814): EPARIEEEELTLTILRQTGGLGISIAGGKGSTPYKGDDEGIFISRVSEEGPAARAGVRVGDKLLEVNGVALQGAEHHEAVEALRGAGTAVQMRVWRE

[29] = target: SCRIB_2, Q14160
SCRIB_2, Q14160, sequence (Q14160 857-960): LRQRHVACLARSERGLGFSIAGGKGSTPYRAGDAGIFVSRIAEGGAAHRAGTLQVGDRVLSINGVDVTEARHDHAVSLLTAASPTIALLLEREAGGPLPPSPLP

[30] = target: SNX27, Q96L92
[31] = target: T8, TJP3_3, O95049
T8 sequence (O95049 375-456, limits assumed, looked up): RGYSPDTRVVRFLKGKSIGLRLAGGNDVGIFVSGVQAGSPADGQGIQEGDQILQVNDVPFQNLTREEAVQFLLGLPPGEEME

Row | Binder | pKd [1] | pKd [2] | pKd [3] | pKd [4] | pKd [5] | pKd [6] | pKd [7] | pKd [8] | pKd [9] | pKd [10] | pKd [11] | pKd [12] | pKd [13] | pKd [14] | pKd [15] | pKd [16] | pKd [17] | pKd [18] | pKd [19] | pKd [20] | further results
1 | QRQARSETLV [HPV59-E6, Q81964] | below the threshold | below the threshold | 3.82 | 4.97 | 4.51 | 5.11 | 5.45 | 4.21 | below the threshold | below the threshold | 3.92 | 4.34 | below the threshold | below the threshold | 3.78 | below the threshold | below the threshold | below the threshold | below the threshold | below the threshold | pKd [21]: 4.73; pKd [22]: 5.02; pKd [23]: 5.03; pKd [24]: 4.82; pKd [25]: below the threshold; pKd [26]: below the threshold; pKd [27]: 4.37; pKd [28]: 3.82; pKd [29]: 4.18; pKd [30]: 4.64; pKd [31]: 3.7
2 | SKPTRRETEV [HPV35-E6, P27228] | below the threshold | below the threshold | 4.77 | 5.27 | 5.18 | 5.09 | 5.51 | 5.2 | 3.49 | below the threshold | below the threshold | 3.82 | below the threshold | below the threshold | below the threshold | below the threshold | below the threshold | below the threshold | below the threshold | below the threshold | pKd [21]: below the threshold; pKd [22]: 4.18; pKd [23]: 5.09; pKd [24]: 4.04; pKd [25]: below the threshold; pKd [26]: below the threshold; pKd [27]: 3.78; pKd [28]: 4.56; pKd [29]: 4.7; pKd [30]: 4.66; pKd [31]: below the threshold
3 | DKDPHSETAL [TMIGD1, Q6UXZ0] | below the threshold | below the threshold | below the threshold | below the threshold | below the threshold | below the threshold | 3.78 | below the threshold | below the threshold | 4.34 | below the threshold | below the threshold | below the threshold | below the threshold | below the threshold | below the threshold | below the threshold | below the threshold | below the threshold | below the threshold | pKd [21]: 3.52; pKd [22]: 3.67; pKd [23]: 5.64; pKd [24]: 5.42; pKd [25]: 3.88; pKd [26]: below the threshold; pKd [27]: 3.73; pKd [28]: 4.64; pKd [29]: 4.23; pKd [30]: 5.49; pKd [31]: 3.49
